Data published in the DeepSol protein solubility set.

Test: soluble on expression in E. coli; label from the status in PepcDB or PDB records

Sequence | soluble on expression in E. coli
MSLEVNVEGKLEAMQAVVGAKAVPFAGTQAEPIQIAMIYPSADTSDFWARNYIAMTKRLEELGIQFETTEFASRQIEHSLQSTYANQVVQDADLYDFVIFGPSELAIQADNIDKMAASEGFSTFVWAFHTPLKDLKNQPDGWFDFSSAAGALTMCDYMLGRLGNDVTMAMNRGIPGITDDQRSGDFKACVEEKGNWTTIYEHYGEYQREGGFEGTSLILQAYPEATVIHNANTAMAMGSVEAQISVGKEKEVFSTGWGGTGLELDAIRRGELDATPMRMGDDVGAATAEAIKAHLEGRSDELPFVFLGRITVAHDQMSAEEIDALEAEAFRFSGVGALEREGHHHHHH | not soluble
MSGKRISREKLTIKKMIDLYQAKCPQASAEPEHYEALFVYAQKRLDKCVFGEEKPACKQCPVHCYQPAKREEMKQIMRWAGPRMLWRHPILTVRHLIDDKRPVPELPEKYRPKKPRE | not soluble
MSASSSSALPPLVPALYRWKSTGSSGRQVQRRCVGAEAIVGLEEKNRRALYDLYIATSLRNIAPASTLLTLQNLKEMFELALLDARFEHPECACTVSWDDEVPAIITYESPESNESARDWARGCIHVQPTAKSALDLWSEMEEGRAAANDNTPSKSIELFLLSDVSTDSTPIPQDATVEILFHSNHLFWDGIGCRKFVGDLFRLVGSYIGRSDSREMKKIQWGQEIKNLSPPVVDSLKLDINTLGSEFDDKCTEYTSALVANYKSRGMKFQPGLALPRCVIHKLSADESIDIVKAVKTRLGPGFTISHLTQAAIVLALLDHLKPNDLSDDEVFISPTSVDGRRWLREDIASNFYAMCQTAAVVRIENLKSITVSHKDEKELQVRALESACRNIKKSYRQWLENPFLQALGLRVHNFEASYLHAKPIPFEGEANPLFISDGINERFIPHEIKQTATGENVLSVESIDFVVNQSLPYLAIRLDSWRDASTLNIIYNDANYTEAEVQKYLQSIVEFMLAFRL | soluble
MSIYEYFVKLHRYLLWQTKKIRALERRLHALEARLREMEAQPRTSIERIEYKFDQLKVETLEGTLNIGIAPPGAGGTIEDFAVEPVKTVIPKPEPVLMRPIQEKVAAYLNGEASETLKRLEQQYGRRLDDTYRQFILQDIARQTDERIRFYLQEKANHGYVPSGDRDEAVENEIFQKVKADIEQSLDAFLKHLPSKEGST | not soluble
MNNPKPCEWKSNELSRGYIADYKAFNFVDGEGVRCSLYVSGCPFHCEGCYNKAAQSFKYGKPYTKELEDDILKDIGHESVQGLTLLGGEPFLNTATCLSIVKRIRATYGETKDIWSWTGYTWDEMMQETADKLELLSLIDVLVDGRFEQKLFDPNLAFRGSSNQRIIDVQKSLAAGEVVLYELLEHHHHHH | not soluble
MGSDKIHHHHHHMKIEINPVSRIEGHAKVTIFLDSSGKVENAFFQATEFRGYEKILSGLPMEEVPRVVSTICGICRAIHFTAALKAADQVFGVEASDAAKIVREMLLCAHFIEDHTLSLLALALPDFLSPEERNIFGVIRNLGELGRELLRKRGYAVRILQILGGRNIHPVTALPGGWAKAPTDEELGLIERYSRELLDLGYRMVEVLEAALDMGDGLELRAATLGTEKKGLVNLYDGEQVVKDEEGKEVLRFSGKEYADIITEKSLSWSYSKLTEIKPLGEKLYVVGPLARLKTAELTPKASEIVKTYGVSNNLLYNHFARAVEIIYAAERLLELSQSYRGGRIQNEPQKVAGEGVGIVEAPRGTLIHHYWTDEKGIVRGSNLIVATTHNVRAINHVVGKVAERASDTRNLAEKVEVAIRAFDPCMACATHAVNGVIPIEIQIFRDGELEEVYRNYEESCCGSGQSTHS | not soluble
MAEGLRERKKRQTRQYISDVATGLFLERGFEAVTVAEVADAANVSVNTVYNYFPAKEDLFLDRSKGVIDRLSRWVRGRRDGESAAGAVLRELRDEVESVSPRVGLMDGYATFMKVIQDSPALRSRMWAIGQEVLLNLEHTLREETGSADDDMTPTLMAGQINWLHGTVLAAIGGRMVAGGKPSEVSRDMLLLLDEMEELLSEKVLNYAVRGAL | not soluble
MSLIFLDYDGTLVPIIMNPEESYADAGLLSLISDLKERFDTYIVTGRSPEEISRFLPLDINMICYHGACSKINGQIVYNNGSDRFLGVFDRIYEDTRSWVSDFPGLRIYRKNLAVLYHLGLMGADMKPKLRSRIEEIARIFGVETYYGKMIIELRVPGVNKGSAIRSVRGERPAIIAGDDATDEAAFEANDDALTIKVGEGETHAKFHVADYIEMRKILKFIEMLGVQKKQEGHHHHHH | soluble
MSTDIDCIVIGAGVVGLAIARALAAGGHEVLVAEAAEGIGTGTSSRNSEVIHAGIYYPADSLKARLCVRGKHLLYEYCAARGVPHQRLGKLIVATSDAEASQLDSIARRAGANGVDDLQHIDGAAARRLEPALHCTAALVSPSTGIVDSHALMLAYQGDAENDGAQLVFHTPLIAGRVRPEGGFELDFGGAEPMTLSCRVLINAAGLHAPGLARRIEGIPRDSIPPEYLCKGSYFTLAGRAPFSRLIYPVPQHAGLGVHLTLDLGGQAKFGPDTEWIATEDYTLDPRRADVFYAAVRSYWPALPDGALAPGYTGIRPKISGPHEPAADFAISGPASHGVAGLVNLYGIESPGLTASLAIAEETLARLAALEHHHHHH | soluble
MEAKAIARYVRISPRKVRLVVDLIRGKSLEEARNILRYTNKRGAYFVAKVLESAAANAVNNHDMLEDRLYVKAAYVDEGPALKRVLPRARGRADIIKKRTSHITVILGEKHGK | soluble
MNDNTHTLPPRHLSVAPMLDWTDRHYRYLARQITRNTWLYSEMVNAGAIVYGDKDRFLMFNEGEQPVALQLGGSDPSDLAKAAKAAEAYGYNEVNLNCGCPSPRVQKGSFGACLMNEVGLVADCLNAMQDAVKIPVTVKHRIGVDRQTEYQTVADFVGTLRDKTACKTFIVHARNAWLDGLSPKENRDVPPLKYDYVYRLKQEFPGLEIIINGGITTNEAIAGHLQHVDGVMVGREAYHNPMVMREWDRLFYGDTRSPIEYADLVQRLYTYSQAQIQAGRGTILRHIVRHSLGLMHGLKGARTWRRMLSDATLLKDNDGSLILEAWKEVERANMRE | not soluble
MNMVAQQMPSPEEIAAQLQMIRDQIAELQGVLAQLELRLRSVQAAKETVEKAAGQDGETLFPGDPELNTILKARLLEPGKAIVHLGLNVYAKLDTAKATEILAKKEDALKRSLETLKQELDKLSRTHDQYLQLLQALTAGQAAQQAGQQQKQGS | soluble
MTELKNDRYLRALLRQPVDVTPVWMMRRAGRYLPEYKATRAQAGDFMSLCKNAELACEVTLQPLRRYPLDAAILFSDILTIPDAMGLGLYFEAGEGPRFTAPVTCKADVEKLPIPDPEGELGYVMNAVRTIRRELKGEVPLIGFSGSPWTLATYMVEGGSSKAFTVIKKMMYADPQALHLLLDKLAKSVTLYLNAQIKAGAQSVMIFDTWGGVLTGRDYQQFSLYYMHKIVDGLLRENDGRRVPVTLFTKGGGQWLEAMAETGCDALGLDWTTDIADARRRVGHKVALQGNMDPSMLYAPPARIEDEVATILAGFGQGEGHVFNLGHGIHQDVPPEHAGAFVEAVHRLSAQYHN | not soluble
MDNYQEITRYLDNAREILSTKANKEGQFYKDIKYVQMASGTAYNAALMIADEYLRKKEGAKFTKPNSIDEYRVRLNKHNKTLLAYLNRAYDMLHLAGYYHGTPSVGTIKQGMEAAQKMLALIEH | soluble
MSLEFYIADFKQIKEGKVTDIYFERTLKTLEYLGIKDAKVRMEVHSYGLPKGYEWALFTGLEEVLHLLEGVPVNVYAMPEGTLFKEIEPVMIIEGNYLDFGIYETAFLGILRHYSSISTKAARLKFLAMDKTLFFFGLRSLHPALAPMADRAAYIGGMDGVSGAMSKEYLGVDPSGTMPHALMLIVGDNVKAWKAFDEAMGSEVPRITLVDTFEDERTEALKAATLLGKKLYGIRLDTPSSRRGNFRKIIQEVKWTLKIHGYDHVKIFASGGIDEDDIINLRDIVDGFGIGTSIAFPPSVDFSADIVEKFVDGKWVPFTKRGKWPGAKQVYRCGKLNDVITLMDQEHPSSDCKPLLQKYMENGKIIKPLPSPKEIREYVIKQLTELQSSEGHHHHHH | soluble
MGSDKIHHHHHHADILSCTVDGDILKAEPEIDNESVTLTVKSDADITNLAPVFTLTPGATITPASGSAFDFTTPRTYTVTSEDGHWTKTYTVRCIVSGVSTEYHFEHITMEPKNGRYQIFYDFTSNGDSVTWASGNAGFALTNNKLEPLDFPTMQDDNGYVGKCAKLVTRSTGSFGSGFGMPIAAGNLFIGTFDLLNAIPDARKGTRLGRPFDHVPTYLSGYYKYKAGESYKVNGEEVKGKKDQCDIYAIFYETDENVKYLDGFNGLTSPNLISVARISDQKETDEWTRFYIPFVAKPGKVIDKDKLAKGGYQLSIVFSSSLKGDVFEGAEGSTLWIDEVEIIQSGEN | not soluble
MAHHHHHHMPETTHVTNDAAVPQKHIVEKPHLMDLFRSSASFAKIIAYLQGCSDSVNGTPRSARMVQKASELHPTVRFFVETFFPHLHKIVEEVPLQDMKKQRFGNRAFRVFHERLEADVGGLMQQLVLTLPARSGERSEEEQRCLAVELAEYIKDSFGNSTRIDYGTGHELHFFVVIMICLEECGDAGGTLQAEPTTIVSLNFPQPAPVLVDKRDRVCRLRQGMVFDVFGAYLTFMRRLQKHYHLEPAGSHGVWGLDDYHHLPFIFGAAQLIGKEVPHKTDDSGNGKGYGAILPKHVCEENAVRLHADEYFYFAQVAWVRENKTGPFFEHSSMLYNISGVESWQKIYTGMVKMYAAEVLSKFNVVQHLLFGTHLPWPPDV | soluble
MGSDKIHHHHHHMSAMLTVEGLGKSYRVWGSEWLRAASWFGLKVKPREEHWVLRNVGFSVTAGESIGIMGRNGAGKSTLLKLITGTSQPTEGRIVRRGRIAAILELGMGFNPDLSGRENARHSAGLMGYTLDQIEAVLPEIQEFAEIGDYFDEPVRTYSSGMQVRVAFAVATAFRPDVLIVDEALSVGDVYFQAKCFKRILSFKEKGMTLILVSHSVGDVVKHCDRAILIKDGGVYADGPSREVSNLYLDELFGKKPASLQAEAKDTPKDLRAGTEDLFHTRPYYNAGEHRWGQGGARILDYVVVSDGQEFPARVESGSRTAFYVKIAFDQDFDSVVPGILVKTLEGLFLYGTNSFLSSEGRTGIAAKAGDVIVCKFTMPLDLNEANYLISLGISSGDPLVELTPLDRRYDAIVLNVARGMQFWGMMDLKADFEIVEALS | not soluble
GMNGFSQLEGLRGHPSVVRVIGHRGARGVMPENTLEGFAFTLAAGVRALEFDVVMTADGVPVVTHNHHLANAMTRDGQGHWLTGAERQVAEMTYAEIRALDVGGLDGRTVYGRRFPDQAFLTGIHVPRLGELLDLCAGYGDQAPYLLLELKSDPALMHDHAARAEMVAAVLADVRRYRMEPRTVMHSFDWALLGECRRQAPDLPTSYLSQLPENADDPGEDSAKPVGPDYDRMTESLPQAVASAGGQLWCPYFLDVTPELVAEAHDLGLIVLTWTVNEPEDIRRMATTGVDGIVTDYPGRTQRILIDMGLSWT | soluble
MRTHDDTWDIKTSVGTTAVMVAAARAAETDRPDALIRDPYAKLLVTNTGAGALWEAMLDPSMVAKVEAIDAEAAAMVEHMRSYQAVRTNFFDTYFNNAVIDGIRQFVILASGLDSRAYRLDWPTGTTVYEIDQPKVLAYKSTTLAEHGVTPTADRREVPIDLRQDWPPALRSAGFDPSARTAWLAEGLLMYLPATAQDGLFTEIGGLSAVGSRIAVETSPLHGDEWREQMQLRFRRVSDALGFEQAVDVQELIYHDENRAVVADWLNRHGWRATAQSAPDEMRRVGRWGDGVPMADDKDAFAEFVTAHRL | soluble
